Legend:
[1] = target: T1, Hgd (S-hydroxymethyl glutathione dehydrogenase) (Methylobacterium aquaticum, UniProt A0A0C6FVV4); test: NADH formation at […] nm in cell-free extract, hgd deletion mutant as control; type: biochemical; settings: S-hydroxymethylglutathione formed in situ from formaldehyde and glutathione; NAD, sodium phosphate pH 7, premix at 25 °C
T1 construct: gene adhC; native enzyme in cell-free extract of strain 22A; activity absent in the hgd deletion mutant

[2] = substrate: CO; test: purified protein; type: biochemical, Methylobacterium aquaticum; settings: PMS and DCPIP as electron acceptors, ammonium chloride, La3+-loaded enzyme (0.58 La per monomer), Tris-HCl pH 9.0, 30 °C
[3] = substrate: C=O; test: purified protein; type: biochemical, Methylobacterium aquaticum; settings: PMS and DCPIP as electron acceptors, ammonium chloride, La3+-loaded enzyme (0.58 La per monomer), Tris-HCl pH 9.0, 30 °C, formaldehyde prepared from autoclaved paraformaldehyde

T1 sequence (A0A0C6FVV4 entry or part of it): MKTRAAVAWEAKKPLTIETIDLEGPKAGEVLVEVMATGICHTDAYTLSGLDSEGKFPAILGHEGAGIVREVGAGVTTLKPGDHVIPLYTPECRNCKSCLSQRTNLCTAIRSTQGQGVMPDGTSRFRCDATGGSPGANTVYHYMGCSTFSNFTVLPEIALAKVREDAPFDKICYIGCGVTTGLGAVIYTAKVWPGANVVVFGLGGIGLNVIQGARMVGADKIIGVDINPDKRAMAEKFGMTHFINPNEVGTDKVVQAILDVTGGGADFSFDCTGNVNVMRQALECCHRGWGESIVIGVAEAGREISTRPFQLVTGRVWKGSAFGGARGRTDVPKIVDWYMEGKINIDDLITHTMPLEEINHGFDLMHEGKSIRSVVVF

Molecule	NADH formation at 340 nm in cell-free extract, hgd deletion mutant as control [1]	Km [2] [µM]	Km [3] [µM]
N[C@@H](CCC(=O)N[C@@H](CSCO)C(=O)NCC(=O)O)C(=O)O [S-hydroxymethyl glutathione]	hgd indeed encodes S-hydroxymethylglutathione dehydrogenase	–	–
XoxF1-His (XoxF1, Ln3+-dependent methanol dehydrogenase) (Methylobacterium aquaticum) (protein, His-tagged (primer-encoded at 3' end, C-terminal), tag kept; Ni-NTA; ca. 60 kDa monomer) NEDVLKRTANPAEQVLQTVDYANTRYSKLDQINAGNVNKLQVAWTFSTGVLRGHEGSPLVVGDVMYVHTPFPNIVYALDLNQDGKILWKYEPKQDPNVIPVMCCDTVNRGLAYADGAIFLHQADTTIVSLDAKSGKVNWSVQNGDPKIGETNTATVLPVKDKLIVGIAGAEYGIRGHITAYDLKTGKQAWRAYNLGPDAEMKIDPEKTTELGKPVGKDSSIKTWEGDQWKTGGASTWGWYSYDPKLNLVYYGTGNPSTWNPKQRPGDNKWSMTIFARDADTGVAKWVYQMTPHDEWDYDGINEMILTDQKIGDKERPLLTHFDRNGFGYTLDRATGELLVAEKYDPAVNWATKVDQDKSSKTYGRPLVVAKYSTDQNGEDTNSKGICPAALGSKDQQPAAYSPKTNLFYVPTNHVCMDYEPFRVSYTPGQPYVGATLSMYPAPNSHGGMGNFIAWDGTAGKIKWSNPEQFSVWSGALATAGDVVFYGTLEGYLKAVDSKTGKELYKFKTPSGIIGNVMTFQHKGKQNIAVLSGVGGWAGIGLAAGLTDPNAGLGAVGGYAALSSYTNLGGQLTVFNLPN	–	30	340
